The assay deals with T1, 6xHis-hERG1a N1–354-FLAG (human, UniProt Q12809 1-354).
T1 construct: Plasmid made commercially (BioInnovatise); also called hERG1a N-terminal region; source: bacteria, M15 cells, purified (nickel column); not shown: His6, N-terminal, kept; FLAG, C-terminal, kept
In words: pull-down; GST or GST fusion protein bound to glutathione beads, incubated with 6xHis fusion protein in buffer S (50 mM Tris pH 8, 150 mM NaCl, 25 mM imidazole, 0.25% Tween-20) with 0.5% CHAPS, overnight at 4 °C; washed; Western blot with anti-FLAG. Conditions: both partners purified. Background: Immunoblotting shows a protein as a band on a membrane.

T1 sequence (Q12809 1-354): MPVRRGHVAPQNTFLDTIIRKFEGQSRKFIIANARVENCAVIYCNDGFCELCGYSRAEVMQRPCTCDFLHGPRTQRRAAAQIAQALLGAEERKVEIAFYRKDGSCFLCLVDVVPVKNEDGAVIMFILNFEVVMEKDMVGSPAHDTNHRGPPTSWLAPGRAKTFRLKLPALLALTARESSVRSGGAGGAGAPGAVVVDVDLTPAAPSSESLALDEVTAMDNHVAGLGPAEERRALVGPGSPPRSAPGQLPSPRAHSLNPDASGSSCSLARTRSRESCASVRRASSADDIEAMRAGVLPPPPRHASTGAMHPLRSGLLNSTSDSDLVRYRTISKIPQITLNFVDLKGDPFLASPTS

B1: GST-hERG1b N1–56 (domain or fragment, human, UniProt Q12809-2 1-56, looked up)
chain: MAAPAGKASRTGALRPRAQKGRVRRAVRISSLVAQEVLSLGADVLPEYKLQAPRIH
notes: hERG1b (KCNH2 isoform 1b), human, N-terminal region residues 1-56; numbers count on: hERG1b; Plasmid made commercially (BioInnovatise); also called hERG1b N-terminal region; GST–hERG1b N-terminal region; not shown: GST, N-terminal, kept
Consider B1, for which the binding result is “binds”.

Values taken from article PMC9428852, “The N-linker region of hERG1a upregulates hERG1b potassium channels” (The Journal of Biological Chemistry, 2022).
